T1: FGFR1b (human, UniProt P11362-19 22-376, limits assumed)
T1 construct: soluble protein in SPR and ELISA, whole receptor on L6 cells in the luciferase assay
T1 sequence (looked up): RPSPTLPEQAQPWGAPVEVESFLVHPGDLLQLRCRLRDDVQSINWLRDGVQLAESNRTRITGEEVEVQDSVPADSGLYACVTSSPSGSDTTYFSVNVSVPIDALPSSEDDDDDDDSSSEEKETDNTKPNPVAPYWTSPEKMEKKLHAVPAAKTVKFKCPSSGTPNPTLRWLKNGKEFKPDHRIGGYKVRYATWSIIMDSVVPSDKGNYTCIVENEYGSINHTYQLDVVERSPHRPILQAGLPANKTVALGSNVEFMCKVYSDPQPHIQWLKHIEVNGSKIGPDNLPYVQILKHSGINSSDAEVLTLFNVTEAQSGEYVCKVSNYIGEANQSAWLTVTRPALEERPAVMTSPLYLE


Legend:
[1] = biological target: T2, human KLB / human FGFR1c complex on cells (human, UniProt Q86Z14 53-1044; P11362 22-822); experiment: radiolabeled ligand competition binding (iodinated FGF21) on HEK293 cells expressing human FGFR1c and human KLB
T2 construct: both receptors co-expressed on HEK293 (or L6) cells; also called FGFR1c/KLB complex; 293huKLB/huR1c
Procedure: For the radioligand cell binding assay, HEK293 cells that stably co-expressing KLB and/or FGFR1c were placed into 96-well plate at a density of 100,000 to 200,000 cells per 0.2 mL in binding buffer (DMEM with 1% bovine serum albumin (BSA), 50 mM HEPES, pH 7.2, 0.1% sodium azide and 350 mM human IgG). […] Competition reactions with cells were incubated for 2 h at room temperature.

[2] = biological target: T2, human KLB / human FGFR1c complex on …; experiment: cell-based or functional assay
[3] = biological target: T1, FGFR1b; experiment: SPR (BIACORE T100), antibody captured by anti-human Fc on a CM5 chip, FGFR1 ECD protein injected, 25 °C, 1:1 Langmuir fit

Row | Kd [1] | EC50 in GAL-ELK1 assay in HEK293 cells [2] | Kd [3] | koff [3] | kon [3] | Binder
1 | 5.3 nM | 4.7 nM | – | – | – | hFGF21 (ligand, human, UniProt Q9NSA1 29-209, looked up, also called recombinant FGF21) HPIPDSSPLLQFGGQVRQRYLYTDDAQQTEAHLEIREDGTVGGAADQSPESLLQLKALKPGVIQILGVKTSRFLCQRPDGALYGSLHFDPEACSFRELLLEDGYNVYQSEAHGLPLHLPGNKSPHRDPAPRGPARFLPLPGLPPALPEPPGILAPQPPDVGSSDPLSMVGPSQGRSPSYAS
2 | – | – | 1.13 nM | 0.0022 s⁻¹ | 1.9e+06 M⁻¹ s⁻¹ | YW182.2 (antibody, V domains shown) VH: EVQLVESGGGLVQPGGSLRLSCAASGFTFTSTWISWVRQAPGKGLEWVGEIDPYDGDTYYADSVKGRFTISADTSKNTAYLQMNSLRAEDTAVYYCATEHFDAWVHYYVMDYWGQGTLVTVSS VL: DIQMTQSPSSLSASVGDRVTITCRASQDVSTAVAWYQQKPGKAPKLLIYSASFLYSGVPSRFSGSGSGTDFTLTISSLQPEDFATYYCQQSYTTPPTFGQGTKVEIK

Reference: patent publication US20220064331A1 (Genentech, published 2022)
